Results taken from the domain aggregation screens of Martell et al. (2025).
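Further: 20 min heating vs room temperature control held 20 min.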

Test: soluble fraction after stress (log2 fold change); higher = more stays soluble; pooled small domains, quantitative proteomics
Conditions: stress: 75 degC
In the case of “HMTSHPTHTILDGKVHVFMRDGSPFWWGGFHFKGKYLRTSTKQKNLDSAKTIAQQWYFQKQTEIASGE”, the “soluble fraction (log2)” value is reported as -2.85.
With “HMTSKVTVLAVNGRITVSGKEQDETVSVYDTGGRLLYQGESDVINVPRKAMYIVTVSRKSYKVIV” the “soluble fraction (log2)” value was -1.52.
For “HMTSLAGIERFLASGAIAGVGEAMAHRLVQKFGKETLEIIEKKPSRLTEVAGVGKKTAAKIHASYMEK”, the “soluble fraction (log2)” value was -0.344.
For “HMTSLGLEGLVNTTAIATSDLRPSGWALAGERKIFVVSEGEFIDNGDKIRILTVDGNRIVVRKETNK”, the “soluble fraction (log2)” value was -0.477.
With “HMTSLTSDEEQIINVLRAEESVYINALATKSKIPLQKLLGLLIQLEFKGLIHSLPGSHYKIV” the “soluble fraction (log2)” value was -0.221.
With “HMTSNIIIVPNVVGMTKEQATAALAAAGLNIKLSGVETTDTAAVAVKQKPSANTKVEEGSVVTVEFDLK” the “soluble fraction (log2)” value was no less than 1.04.
With “HMTSPKSRIVSALLASPSRPEELAMRLGEDILTLMRTLTDFEASGIIQRLPDGRYTPTREYHLGLVDK” the “soluble fraction (log2)” value was -0.12.
With “HMTSPRRLYALIVEHVGKDGVMHRSDVENVLAKVESEMDVDDLLDQLEINGTIIRRQDGTWQLL” the “soluble fraction (log2)” value was -0.716.
For “HMTSRFITTEEGTLYVDADGRKVSGWQTIDGSRYYFDEHGIRQSGTIEVNGETYVLDEDGVL”, the “soluble fraction (log2)” value was 0.0516.
For “HMTSRWEIGYNVAKKYYDEHGNLDVERAVYDNFELKKWLNTQRYKNSAGTLAEKYKIKLDELGMNWER”, the “soluble fraction (log2)” value was -0.214.
For “HMTSSQLYLIEEDMEGERLDAFLAEVIADLSRTAIKDLISNGRVLVDGQARKPSYRVKEGEQVLIHVPEAR”, the “soluble fraction (log2)” value was -0.392.
For “HMTSVFQNSDGTWGHLTKTVNPLIYTIEYGRRTGFSSREEAEESYQRSLTSYQDQLSKLKKERD”, the “soluble fraction (log2)” value was 0.297.
In the case of “HMTSVPGTVVTNANLRGGPGTNYPIVGKAPAGTTVNVVESTADRTWYYLDTGSWIAAFLVKLS”, the “soluble fraction (log2)” value is reported as -0.33.
With “HMTSVRVPVKKEIWFWAIKESQRDLNEILARFPKMDKWINQEENPTFNQLEKVAKFLRVPFGYMFLDKPPK” the “soluble fraction (log2)” value was -1.86.
For “HMTTETGTVKWFNEGKGFGFIAPDGGGKDLFAHFKEIQGSGFKTLTENQRVQFEVTQGQKGPQASNIRTL”, the “soluble fraction (log2)” value was 0.227.
For “HMTTHEQVAILRRELNGLVGAWHHRTGQAHGVTHSKLRKELGGPPAAVASAAQLSARIEKIRQWAT”, the “soluble fraction (log2)” value was -0.922.
In the case of “HMTTIAQMTGPQRAAVILLVLGEDHGRTIWQEFDDDEIRIITRAMAELGTVDADEVERLMLDFVGKLSS”, the “soluble fraction (log2)” value is reported as -2.67.
For “HMTTIAQNISNYRTRANMTQQQVADKLSVSHHTVSKWELGINTPSVEDMQKLAQVFGVTITELVVD”, the “soluble fraction (log2)” value was -0.652.
In the case of “HMTTIHVDPEKISKIIGPGGKTIKKIVEETGAKIDIEEDGRVYIAAVNSEEAAKAIDMINGI”, the “soluble fraction (log2)” value is reported as 0.0704.
In the case of “HMTTIPAGRQQYILSLIRREGTVTVSRLAQELEVSELTIRRDLDQMAARNLVERTHGGATERR”, the “soluble fraction (log2)” value is reported as -1.53.
For “HMTTKEEAAYQAIRSAIIDGELKPGQSVTIRDLASRFDLGRTPITDAMKHLALDGWLETTTGVGTRV”, the “soluble fraction (log2)” value was -0.183.
In the case of “HMTTLAADFNSDGRVDIGDLSILAGNWGKSRTNEVDFNKYGDADYNGRIDIIDLSILATQFGQTDNSN”, the “soluble fraction (log2)” value is reported as 0.321.
In the case of “HMTTLDTVARQLRDRIREQLDPTGEMSDESLLRTIEEAVYRYSSSGHVLTANEKETVIRRIFHSFR”, the “soluble fraction (log2)” value is reported as 0.042.
For “HMTTMNSADLIKELEKAGWTLRGVKGSHHIYTHPARGGHLSVPHPKKDLGAGLARQLRKQAGL”, the “soluble fraction (log2)” value was -0.032.
For “HMTTPAAISKIKKLEEAKRLLATTTYSMKEIAVKLKYKSHTHFGMDFKNNTGMTPAEYRKAIKAKREKQMN”, the “soluble fraction (log2)” value was -1.96.
For “HMTTQERVSYSAFINDVETGRVAKVVISGYTIEGTRTNNSSFVTERPYGVDSNLSEVLMQNSVSIEGKA”, the “soluble fraction (log2)” value was -0.122.
In the case of “HMTTQVNTVKIQLANGYEMTVLTSKTNVKEILEDNNIILENNEKVTPNIDEEISSNKTIKITDKSN”, the “soluble fraction (log2)” value is reported as 0.055.
In the case of “HMTTTSGLIKTIQTGRRKLGMDDETYRALLADVSGGKTSSKDLNAYQLKEVLRRMREAGFRS”, the “soluble fraction (log2)” value is reported as 0.58.
For “HMTVDAVALGRRVRHLRKQAGLTLDQLAERTGVSGSHLSLVENARREPRLSLVQRIAEVLGVPVEDL”, the “soluble fraction (log2)” value was -1.49.
For “HMTVGEKIQYYRKKIGLSQEELGQKMLLSRQTISLWEMDKTLPTVDNLLRLKEIFSVSIDELLSENEPK”, the “soluble fraction (log2)” value was -1.31.
In the case of “HMTVKNFNDLPGFKNENLAELKAMGITTISELAEALNDGGKIKEIIKNLSGVGPKTAEKWKDAIG”, the “soluble fraction (log2)” value is reported as no less than 1.04.
In the case of “HMTVKVPDLRGKTLAEMQRILDDAGLKYEINDSTFSRTAIPGTVREVIPAPGSEVKLGRILFIAINGF”, the “soluble fraction (log2)” value is reported as -2.19.
For “HMTVLIDEQSSDGLLKITVTANTAVKSITIADELLEDKEQLEDYLILVLNKAIARANQVNQTELDAVAK”, the “soluble fraction (log2)” value was 0.0536.
In the case of “HMTVPAGIVLSSIRQDGDVLHIRGTAQSTERLNFFRNSFSASWGSPAQNGKRKADPVTGLVDFTISLK”, the “soluble fraction (log2)” value is reported as -0.758.
In the case of “HMTVPMKILILEDEQRNAMRLIRLLNDIDTTFIIEGPLTNIKEAVDFFQSGKTTDLILADIRL”, the “soluble fraction (log2)” value is reported as -0.254.
With “HMTVSADQTTADAVIKLIDAIGTVSKNSGSAISAARSGYDALTDAQKKLVTNYNKLTQAEQVFSSLS” the “soluble fraction (log2)” value was 0.494.
In the case of “HMTVSLTDVPFVPEILDRLERPELDVLLAILNGATNTFDLAAKTGRSRDELDEVLDRLTTLGLIER”, the “soluble fraction (log2)” value is reported as -0.532.
For “HMTVTLTTLRNGSTGAQVKTLQRLLSAMDYYNGETDGKFGISTAAAVKAFQRAKRLTVDGIVGKNTWTALL”, the “soluble fraction (log2)” value was -1.2.
